{"source": "patent US20220025010A1", "about": "(ANTAG THERAPEUTICS, published 2022)", "note": "*1 amine or outer side, *2 acyl side, *3 side chain or, on linkers, in order; H or OH if unused. Where no end group is shown, it is not given here. Side-chain parts run from the residue outwards. The star is where a group is joined. C18 diacid = O=C(O)CCCCCCCCCCCCCCCCC(=O)*; C16 diacid = O=C(O)CCCCCCCCCCCCCCC(=O)*; γGlu = O=C(O)[C@H](CCC(=O)[*:2])N[*:1]; AEEA = NCCOCCOCC(=O)O", "data": [{"target": "T1, human GIP receptor (human, UniProt P48546 22-466)", "T1 sequence (looked up)": "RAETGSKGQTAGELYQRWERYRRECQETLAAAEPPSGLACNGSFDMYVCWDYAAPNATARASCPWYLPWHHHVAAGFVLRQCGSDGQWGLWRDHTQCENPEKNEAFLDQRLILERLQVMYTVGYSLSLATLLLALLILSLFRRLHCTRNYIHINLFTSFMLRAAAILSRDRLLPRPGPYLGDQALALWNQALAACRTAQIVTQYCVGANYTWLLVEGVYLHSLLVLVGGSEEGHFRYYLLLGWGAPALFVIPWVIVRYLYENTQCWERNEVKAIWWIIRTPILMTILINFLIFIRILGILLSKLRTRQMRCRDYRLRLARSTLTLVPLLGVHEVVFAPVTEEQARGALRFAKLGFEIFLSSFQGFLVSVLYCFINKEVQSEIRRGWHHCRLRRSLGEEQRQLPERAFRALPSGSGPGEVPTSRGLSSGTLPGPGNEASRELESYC", "assay": "cell-based or functional assay", "units": {"CisBio cAMP agonism % Efficacy": "%", "DiscoveRx cAMP antagonism IC50": "nM", "DiscoveRx cAMP antagonism log IC50": "log M", "CisBio cAMP antagonism % inhib": "%", "CisBio cAMP antagonism IC50": "nM", "DiscoveRx cAMP antagonism % inhib": "%"}, "values": [{"binder": "GGTFISDYSIAMDRIKQQDFVNWLLAQR (HELM PEPTIDE1{G.G.T.F.I.S.D.Y.S.I.A.M.D.R.I.K.Q.Q.D.F.V.N.W.L.L.A.Q.R}|PEPTIDE2{[O=C(O)CCCCCCCCCCCCCCC(=O)[*:2]].[gGlu].[O=C(COCCOCCN[*:1])[*:2]]}$PEPTIDE1,PEPTIDE2,16:R3-3:R2$$$V2.0; N-terminus assumed; SMILES CC[C@H](C)[C@H](NC(=O)[C@H](CO)NC(=O)[C@H](Cc1ccc(O)cc1)NC(=O)[C@H](CC(=O)O)NC(=O)[C@H](CO)NC(=O)[C@@H](NC(=O)[C@H](Cc1ccccc1)NC(=O)[C@@H](NC(=O)CNC(=O)CN)[C@@H](C)O)[C@@H](C)CC)C(=O)N[C@@H](C)C(=O)N[C@@H](CCSC)C(=O)N[C@@H](CC(=O)O)C(=O)N[C@@H](CCCNC(=N)N)C(=O)N[C@H](C(=O)N[C@@H](CCCCNC(=O)COCCOCCNC(=O)CC[C@H](NC(=O)CCCCCCCCCCCCCCC(=O)O)C(=O)O)C(=O)N[C@@H](CCC(N)=O)C(=O)N[C@@H](CCC(N)=O)C(=O)N[C@@H](CC(=O)O)C(=O)N[C@@H](Cc1ccccc1)C(=O)N[C@H](C(=O)N[C@@H](CC(N)=O)C(=O)N[C@@H](Cc1c[nH]c2ccccc12)C(=O)N[C@@H](CC(C)C)C(=O)N[C@@H](CC(C)C)C(=O)N[C@@H](C)C(=O)N[C@@H](CCC(N)=O)C(=O)N[C@@H](CCCNC(=N)N)C(=O)O)C(C)C)[C@@H](C)CC)", "note": "[AT269]", "CisBio cAMP agonism % Efficacy": 0, "DiscoveRx cAMP agonism Emax": 12, "DiscoveRx cAMP antagonism IC50": 91, "DiscoveRx cAMP antagonism log IC50": -7}, {"binder": "TFISDYSIALDRIKQQDFVNWLLAQR (HELM PEPTIDE1{T.F.I.S.D.Y.S.I.A.L.D.R.I.K.Q.Q.D.F.V.N.W.L.L.A.Q.R.[am]}|PEPTIDE2{[O=C(O)CCCCCCCCCCCCCCC(=O)[*:2]].[gGlu]}$PEPTIDE1,PEPTIDE2,14:R3-2:R2$$$V2.0; N-terminus assumed; SMILES CC[C@H](C)[C@H](NC(=O)[C@H](CO)NC(=O)[C@H](Cc1ccc(O)cc1)NC(=O)[C@H](CC(=O)O)NC(=O)[C@H](CO)NC(=O)[C@@H](NC(=O)[C@H](Cc1ccccc1)NC(=O)[C@@H](N)[C@@H](C)O)[C@@H](C)CC)C(=O)N[C@@H](C)C(=O)N[C@@H](CC(C)C)C(=O)N[C@@H](CC(=O)O)C(=O)N[C@@H](CCCNC(=N)N)C(=O)N[C@H](C(=O)N[C@@H](CCCCNC(=O)CC[C@H](NC(=O)CCCCCCCCCCCCCCC(=O)O)C(=O)O)C(=O)N[C@@H](CCC(N)=O)C(=O)N[C@@H](CCC(N)=O)C(=O)N[C@@H](CC(=O)O)C(=O)N[C@@H](Cc1ccccc1)C(=O)N[C@H](C(=O)N[C@@H](CC(N)=O)C(=O)N[C@@H](Cc1c[nH]c2ccccc12)C(=O)N[C@@H](CC(C)C)C(=O)N[C@@H](CC(C)C)C(=O)N[C@@H](C)C(=O)N[C@@H](CCC(N)=O)C(=O)N[C@@H](CCCNC(=N)N)C(N)=O)C(C)C)[C@@H](C)CC)", "note": "[AT233]", "CisBio cAMP agonism % Efficacy": 0, "CisBio cAMP antagonism % inhib": 70, "CisBio cAMP antagonism IC50": 34.2, "CisBio cAMP antagonism pIC50": 7.5, "DiscoveRx cAMP agonism Emax": 28, "DiscoveRx cAMP antagonism IC50": 32, "DiscoveRx cAMP antagonism log IC50": -7.5}, {"binder": "TFISDYSIALDRIKQQDFVNWLLAQR-NH2 (not fully specified (residue 14); printed as TFISDYSIALDRIKQQDFVNWLLAQR-(AEEAc +γ-Glu)-C16-diacid/K18)", "note": "[AT234]", "CisBio cAMP agonism % Efficacy": 0, "CisBio cAMP antagonism % inhib": 66, "CisBio cAMP antagonism IC50": 39.8, "CisBio cAMP antagonism pIC50": 7.4, "DiscoveRx cAMP agonism Emax": 26, "DiscoveRx cAMP antagonism IC50": 16, "DiscoveRx cAMP antagonism log IC50": -7.8}, {"binder": "SGTFISDYSIAMDRIK(C16 diacid)QQDFVNWLLAQR-OH (N-terminus assumed; SMILES CC[C@H](C)[C@H](NC(=O)[C@H](CO)NC(=O)[C@H](Cc1ccc(O)cc1)NC(=O)[C@H](CC(=O)O)NC(=O)[C@H](CO)NC(=O)[C@@H](NC(=O)[C@H](Cc1ccccc1)NC(=O)[C@@H](NC(=O)CNC(=O)[C@@H](N)CO)[C@@H](C)O)[C@@H](C)CC)C(=O)N[C@@H](C)C(=O)N[C@@H](CCSC)C(=O)N[C@@H](CC(=O)O)C(=O)N[C@@H](CCCNC(=N)N)C(=O)N[C@H](C(=O)N[C@@H](CCCCNC(=O)CCCCCCCCCCCCCCC(=O)O)C(=O)N[C@@H](CCC(N)=O)C(=O)N[C@@H](CCC(N)=O)C(=O)N[C@@H](CC(=O)O)C(=O)N[C@@H](Cc1ccccc1)C(=O)N[C@H](C(=O)N[C@@H](CC(N)=O)C(=O)N[C@@H](Cc1c[nH]c2ccccc12)C(=O)N[C@@H](CC(C)C)C(=O)N[C@@H](CC(C)C)C(=O)N[C@@H](C)C(=O)N[C@@H](CCC(N)=O)C(=O)N[C@@H](CCCNC(=N)N)C(=O)O)C(C)C)[C@@H](C)CC)", "note": "[AT259]", "CisBio cAMP agonism % Efficacy": 9, "CisBio cAMP antagonism % inhib": 72, "CisBio cAMP antagonism IC50": 58.4, "CisBio cAMP antagonism pIC50": 7.2, "DiscoveRx cAMP agonism Emax": 20, "DiscoveRx cAMP antagonism IC50": 19, "DiscoveRx cAMP antagonism log IC50": -7.7}, {"binder": "EGTFISDYSIAMDRIK([AEEA-AEEA-AEEA-γGlu-C18 diacid])QQDFVNWLLAQR-NH2 (not fully specified (residue 1))", "note": "[AT378]", "CisBio cAMP agonism % Efficacy": 0, "CisBio cAMP antagonism % inhib": 90, "CisBio cAMP antagonism IC50": 11.7, "CisBio cAMP antagonism pIC50": 7.9, "DiscoveRx cAMP antagonism % inhib": 92, "DiscoveRx cAMP antagonism IC50": 16, "DiscoveRx cAMP antagonism log IC50": -7.8}, {"binder": "PGTFISDYSIAMDRIK(C16 diacid)QQDFVNWLLAQR-OH (N-terminus assumed; SMILES CC[C@H](C)[C@H](NC(=O)[C@H](CO)NC(=O)[C@H](Cc1ccc(O)cc1)NC(=O)[C@H](CC(=O)O)NC(=O)[C@H](CO)NC(=O)[C@@H](NC(=O)[C@H](Cc1ccccc1)NC(=O)[C@@H](NC(=O)CNC(=O)[C@@H]1CCCN1)[C@@H](C)O)[C@@H](C)CC)C(=O)N[C@@H](C)C(=O)N[C@@H](CCSC)C(=O)N[C@@H](CC(=O)O)C(=O)N[C@@H](CCCNC(=N)N)C(=O)N[C@H](C(=O)N[C@@H](CCCCNC(=O)CCCCCCCCCCCCCCC(=O)O)C(=O)N[C@@H](CCC(N)=O)C(=O)N[C@@H](CCC(N)=O)C(=O)N[C@@H](CC(=O)O)C(=O)N[C@@H](Cc1ccccc1)C(=O)N[C@H](C(=O)N[C@@H](CC(N)=O)C(=O)N[C@@H](Cc1c[nH]c2ccccc12)C(=O)N[C@@H](CC(C)C)C(=O)N[C@@H](CC(C)C)C(=O)N[C@@H](C)C(=O)N[C@@H](CCC(N)=O)C(=O)N[C@@H](CCCNC(=N)N)C(=O)O)C(C)C)[C@@H](C)CC)", "note": "[AT261]", "CisBio cAMP agonism % Efficacy": 0, "CisBio cAMP antagonism % inhib": 62, "CisBio cAMP antagonism IC50": 200, "CisBio cAMP antagonism pIC50": 6.7, "DiscoveRx cAMP agonism Emax": 24, "DiscoveRx cAMP antagonism IC50": 46, "DiscoveRx cAMP antagonism log IC50": -7.3}, {"binder": "EGTFISDYSIAMDRIK([AEEA-AEEA-γGlu-C18 diacid])QQDFVNWLLAQR-NH2 (not fully specified (residue 1))", "note": "[AT377]", "CisBio cAMP agonism % Efficacy": 0, "CisBio cAMP antagonism % inhib": 90, "CisBio cAMP antagonism IC50": 18.5, "CisBio cAMP antagonism pIC50": 7.7, "DiscoveRx cAMP antagonism % inhib": 100, "DiscoveRx cAMP antagonism IC50": 19, "DiscoveRx cAMP antagonism log IC50": -7.7}, {"binder": "PGTFISDYSIAMDRIKQQDFVNWLLAQR (HELM PEPTIDE1{P.G.T.F.I.S.D.Y.S.I.A.M.D.R.I.K.Q.Q.D.F.V.N.W.L.L.A.Q.R}|PEPTIDE2{[O=C(O)CCCCCCCCCCCCCCC(=O)[*:2]].[gGlu]}$PEPTIDE1,PEPTIDE2,16:R3-2:R2$$$V2.0; N-terminus assumed; SMILES CC[C@H](C)[C@H](NC(=O)[C@H](CO)NC(=O)[C@H](Cc1ccc(O)cc1)NC(=O)[C@H](CC(=O)O)NC(=O)[C@H](CO)NC(=O)[C@@H](NC(=O)[C@H](Cc1ccccc1)NC(=O)[C@@H](NC(=O)CNC(=O)[C@@H]1CCCN1)[C@@H](C)O)[C@@H](C)CC)C(=O)N[C@@H](C)C(=O)N[C@@H](CCSC)C(=O)N[C@@H](CC(=O)O)C(=O)N[C@@H](CCCNC(=N)N)C(=O)N[C@H](C(=O)N[C@@H](CCCCNC(=O)CC[C@H](NC(=O)CCCCCCCCCCCCCCC(=O)O)C(=O)O)C(=O)N[C@@H](CCC(N)=O)C(=O)N[C@@H](CCC(N)=O)C(=O)N[C@@H](CC(=O)O)C(=O)N[C@@H](Cc1ccccc1)C(=O)N[C@H](C(=O)N[C@@H](CC(N)=O)C(=O)N[C@@H](Cc1c[nH]c2ccccc12)C(=O)N[C@@H](CC(C)C)C(=O)N[C@@H](CC(C)C)C(=O)N[C@@H](C)C(=O)N[C@@H](CCC(N)=O)C(=O)N[C@@H](CCCNC(=N)N)C(=O)O)C(C)C)[C@@H](C)CC)", "note": "[AT267]", "CisBio cAMP agonism % Efficacy": 4, "CisBio cAMP antagonism % inhib": 52, "CisBio cAMP antagonism IC50": 736, "CisBio cAMP antagonism pIC50": 6.1, "DiscoveRx cAMP agonism Emax": 16, "DiscoveRx cAMP antagonism IC50": 123, "DiscoveRx cAMP antagonism log IC50": -6.9}]}]}
